Experimental data reported in the supplement of paper PMC9170038.

Tested on: MS2 coat protein
Experiment: apparent KD of MS2 coat protein; designed switch direction (-1 OFF switch, 1 ON switch): -1; higher = weaker reporter binding
Method in brief: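 Stalled E. coli RNA polymerase transcribed designed RNA switches on Illumina chips, which were then titrated with SNAP-549-labelled MS2 coat protein, doubling from 0.7 or 1.5 nM to 3 µM. Steps lasted from 0.8–1.5 h at the lowest concentration to 10–20 min at the highest. The apparent KD is each design's median over clusters of curve-fitted normalised fluorescence.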

[1] = Eterna round: R95, input ligand: FMN 200 uM
[2] = Eterna round: R95, input ligand: microRNA oligo, concentration not stated
[3] = Eterna round: R95, input ligand: none
[4] = input ligand: microRNA oligo, concentration not stated

Row | Sequence | apparent KD of MS2 coat protein (input ligand: FMN 200 uM) [nM] | apparent KD of MS2 coat protein (input ligand: none) [nM] | apparent KD of MS2 coat protein [1] [nM] | apparent KD of MS2 coat protein [2] [nM] | apparent KD of MS2 coat protein [3] [nM] | also measured
1 | CGGUGUAGAGGAUAUACGUGAAGAUAAGAAAAUAAUAAUUAACAUGAGGAUCACCCAUGUAGAAGGCUAUAGCG [JR_Ex2_Sub082] (Eterna round: R97, puzzle: Exclusion 2) | 66.3 | 24.9 |  |  |  | 
2 | AAGAAACAUGAGGAUCACCCAUGUGAGGAUAUGAAAAAGAAAAGAAAAUAAAGAAGAAUCAGAAGGCACAAAGG [Mat - Mod of Hog D3] (puzzle: Exclusion 1) |  |  | 37.7 | 34.4 | 46.1 | 
3 | ACAAGAAUAGGAUAUACAACAUGCCAGCUUCUUUACAACGCACAUGAGGAUCACCCAUGUAGAAGGGUUCUCUG [Exclusion-2-#14] (Eterna round: R97, puzzle: Exclusion 2) | 360 | 329 |  |  |  | 
4 | GAUUAUGCGAGCUUUAGGGACAUGAGGAUCACCCAUGUUCGUCUUAUUAAUCUGGGUACACUAACAUACCUAAAUCU [JMF 9] (puzzle: Sensor v3, turn-off variant 1) |  |  | 27.7 | 47.2 | 31.4 | 
5 | CGAUCGGAAGGAUAUACACCUCACGUCAAACGGACAACCGGACAUGAGGAUCACCCAUGUAGAAGGUCCAAAAU [Tetixeve] (puzzle: Exclusion 2) |  |  |  | 55.7 |  | 
6 | AAUAAGCUAGGAUAUACAUGAGGAUCACCCAUGUGAGGGCACCGCCGGCGCGGGCCCGGUAGAAGGAGUCAUAA [Exc;s3-V] (puzzle: Exclusion 3) |  |  | 22.1 | 34.3 | 27.7 | 
7 | GCAAGCUUUUGCUCGCCUUACAUGAGGAUCACCCAUGUGGGCCCGGGCCCGGGCCCGCCGGGCCCGGGCCCGGGCCC [-59.4, -80.7 kcal, A 10%] (Eterna round: R97, puzzle: Sensor, turn-off variant 1) | 26.5 | 32.2 |  |  |  | 
8 | UCCUUACAUGAGGAUCACCCAUGUCAGGAUAUCUCCUCACUGCGCUUGCGCAGUGGAUAGAGAAGGGACGGGCU [JL ViennaUCT Aner mod 9] (puzzle: Exclusion 1) |  |  | 32.3 | 27.1 | 32.8 | 
9 | GAGUGCUGAGGAUAUACAUGAGGAUCACCCAUGUGCUUCAGCUAGGAGACUAGCAUUGGUAGAAGGUAGUACUC [LRO-Excl3-02] (puzzle: Exclusion 3) |  |  |  | 10.6 |  | 
10 | AAAAAGUUAGGAUAUACAUGAGGAUCACCCAUGUACAUAUAUGGAGAAAAAAACAGUAGUAGAAGGGACAAAAA [EX2 Malc#12] (Eterna round: R96, puzzle: Exclusion 3) | 28.8 | 29.2 |  |  |  | apparent KD of MS2 coat protein [4]: 23.3 nM
11 | AUGUGCACGCUGCGGUCCUACAUGAGGAUCACCCAUGUGGUCUGGUGGCGUGGGUCACCGGACUUGGCUCGUCUUGA [salish99_S_TOV1_R5_055] (Eterna round: R97, puzzle: Sensor, turn-off variant 1) | 56 | 51.9 |  |  |  | 
12 | AUCAGCUCGUGAGGAUAUACAUCACUGCUUCGGCAGUGUAUUAAGAUCACAUGAGGAUCACCCAUGUAGAAGGUACGAGCUGAU [ENG2/2-C3] (Eterna round: R96, puzzle: Exclusion NG 2) | 215 | 26.1 |  |  |  | apparent KD of MS2 coat protein [4]: 20.8 nM
13 | AAUCAGUGUGUGAGGAUAUUGGUGGAAUGACUUAUUAAGAAGGCACAUGAGGAUCACCCAUGUGGGAAGUCACG [JR_BMEx4_Sub016] (Eterna round: R97, puzzle: Brourd's mod of Exclusion 4) | 11.6 | 12.8 |  |  |  | 
14 | UGUACGAUGCGUGCUGACAUGCGUCGUGCAGCAGGUGAUACAUGAGGAUCACCCAUGUCCUCAUUUGCUCGUCUAGU [Mat - Sensor v3 - Turn-off var 2 - D24] (puzzle: Sensor v3, turn-off variant 2) |  |  | 72.5 | 467 | 78.4 | 
15 | AUAUAUAGUGUGAGGAUAUGCUGGUCCUUGGAUCAGCAGAAGGCACAUGAGGAUCACCCAUGUAGUUUAUUUUG [Mat - Exclusion 4 - JL Mod - D6] (puzzle: Brourd's mod of Exclusion 4) |  |  |  | 17.3 |  | 
16 | GAGAAACAUGAGGAUCACCCAUGUGAGGAUAUGCGUACGUUGUCCGUAGGCGACGUGCGCAGAAGGCGCAAAGG [Mat - Mod of JL D86] (puzzle: Exclusion 1) |  |  |  | 54.2 |  | 
17 | AAUAACAGAGGAUAUACUAAAAUAUGAAUAAAAUAAAUAAAACAUGAGGAUCACCCAUGUAGAAGGCUGAAUAA [JMF's Not so obvious solution 7] (puzzle: Exclusion 2) |  |  | 26 | 29.3 | 25 | 
18 | GCGGAGUGAGGAUAUAGAACUUAAGGUACCAAUUAGGUACCCUAGAAGGCACAUGAGGAUCACCCAUGUACCGC [Eli x4 4.01] (Eterna round: R97, puzzle: Exclusion 4) | 26.5 | 28.6 |  |  |  | 

Row | Sequence | apparent KD of MS2 coat protein (input ligand: FMN 200 uM) [nM] | apparent KD of MS2 coat protein (input ligand: none) [nM] | apparent KD of MS2 coat protein [1] [nM] | apparent KD of MS2 coat protein [2] [nM] | apparent KD of MS2 coat protein [3] [nM] | also measured
19 | UUAUUUAGUGUGAGGAUAUGCUGGUCGAUAGAUCAGCAGAAGGCACAUGAGGAUCACCCAUGUAAUAUAUUAAA [Mat - Exclusion 4 - JL Mod - D34] (puzzle: Brourd's mod of Exclusion 4) |  |  |  | 51.5 |  | 
20 | ACCUCACAUGAGGAUCACCCAUGUCAGGAUAUACAAGAAAAUAACCGGAAAGACCGGAGUAGAAGGGACAUAAG [Arisus] (puzzle: Exclusion 1) |  |  | 30.3 | 16.2 | 17.1 | 
21 | ACAACAAGCUUUUUGAACGUAGAACAUGCAGCUCUAGUCACAUGAGGAUCACCCAUGUCAGCCAGUUAGAUAGGUGA [JR_SV3TOV2_Sub066] (puzzle: Sensor v3, turn-off variant 2) |  |  | 93.6 | 126 | 127 | 
22 | UAGAAUCGAGGAUAUACAUGAGGAUCACCCAUGUGUGGCCAUUUGGUGUGGUCGUCAGGUAGAAGGCGAUUACA [Exclusion 3 - Mod of Jieux's Gilly Gone Silly 23 v.5] (puzzle: Exclusion 3) |  |  |  | 141 |  | 
23 | GAAAUACAUGAGGAUCACCCAUGUGAGGAUAUGCUAUGGAAAUAAAAAAUAAAACAUAGCAGAAGGUACAAAAG [Mat - Exclusion 1 - Eli mod - D43] (Eterna round: R96, puzzle: Exclusion 1) |  |  |  |  |  | apparent KD of MS2 coat protein [4]: 50.9 nM
24 | AAGAAGAUCAGAGGAUAUGGAGCUGAAACGGCGCUAGAAGGCUGUCUAGUGUAACAUGAGGAUCACCCAUGUAGGGACCUCUAA [EX ng 1 4.3] (Eterna round: R96, puzzle: Exclusion NG 1) | 874 | 884 |  |  |  | apparent KD of MS2 coat protein [4]: 795 nM
25 | AUAAUGUCAGGAUAUACUAAUGAUGAAUGAUUAGACAUUAUGUAGAAGGGACAUGAGGAUCACCCAUGUAAUAU [EX4 #2] (Eterna round: R97, puzzle: Exclusion 4) | 39.9 | 26.8 |  |  |  | 
26 | CAUACUCAAGUGAGGAUAUAGUCUCGGAUACGAAACUAGAAGGCACAUGAGGAUCACCCAUGUAGAGAGUAAAG [EX-4 Malc #29] (puzzle: Brourd's mod of Exclusion 4) |  |  | 62.7 | 18.5 | 13.1 | 
27 | AUACCACGAGGAUAUCGUCUAUUUUACAUGAGGAUCACCCAUGUUAUCUUUGUUUUGUUUCGAGAAGGCGUGUUUU [JR_E5_Sub079] (puzzle: Exclusion 5) |  |  |  | 24.6 |  | 
28 | AAAUACAAGUAAAGAUCCUACAUGAGGAUCACCCAUGUGCUCGUCUUGUAAAGUACUAUCACGAAAGUGAUAGUACA [Sensor 3, v1 - 22] (puzzle: Sensor v3, turn-off variant 1) |  |  | 45.7 | 31.5 | 51 | 
29 | GCAGGAUAAGUGAGGAUAUACCUCUGGAUACAGAGGUAGAAGGCACAUGAGGAUCACCCAUGUCAUUCACCUGC [Fiskers BMX 4 - 77] (puzzle: Brourd's mod of Exclusion 4) |  |  |  | 14.4 |  | 
30 | UGUGUGAGACAGGAUAUGCCAGAUAUAUUACUGGUAGAAGGGUCUACAUGAGGAUCACCCAUGUGGCCGGCCGG [Ex6 #85] (Eterna round: R97, puzzle: Exclusion 6) | 65.3 | 28.5 |  |  |  | 
31 | UUAGGCUGAAGAUCAAUUAAUUAACAUGAGGAUCACCCAUGUAAGGAUAUCAGCUCGAUUAGAGCUGAGAAGGUACAUGCAGCC [ExNG3/18-A1] (Eterna round: R96, puzzle: Exclusion NG 3) |  |  |  |  |  | apparent KD of MS2 coat protein [4]: 102 nM
32 | GAUUACUGCAAGCUUUGGGACAUGAGGAUCACCCAUGUUCGUCUUAUUGAUCUAGGUACGCUGACGUACCUAGAUCU [JL-sv1-2.28 Brourd mod] (puzzle: Sensor v3, turn-off variant 1) |  |  | 15.8 | 26 | 14.1 | 
33 | ACCUCACAUGAGGAUCACCCAUGUUAGGAUAUCUCGGCGCCCUGUAGGCAGUAGCGCCAGAGAAGGAACGUGCA [Gearorso] (puzzle: Exclusion 1) |  |  |  | 19.8 |  | 
34 | AAUUCACAUGAGGAUCACCCAUGUCAGGAUAUGCUGACGCGGGUUUCGGUGCGUGUUGGCAGAAGGGACAGCUA (puzzle: Exclusion 1) |  |  |  | 144 |  | 
35 | GUUUGACAUGAGGAUCACCCAUGUGAGGAUAUCGUCUGGUACGUGUUGGCUGGCAUCUCGAGAAGGCGCAUAGG [Exclusion 1 V57] (puzzle: Exclusion 1) |  |  | 75.9 | 49.7 | 64.9 | 
36 | AAGUCCAGAGGAUAUCAGACGCGGCACAUGAGGAUCACCCAUGUAUUCCCGUCUGCCGACUGAGAAGGUUGGAAAG [Vesoarusqu] (puzzle: Exclusion 5) |  |  |  | 11.1 |  | 
